Test results reported in patent US12226546 (University of California, dated 2025).
One block for each binder: values may come before it.

Legend:
[1] = molecular target: T1, poly(L-methionine sulfoxide-stat-L-alanine)155-block-poly(L-glutamate-Na)30, (M^OA)155E30 (not fully specified; L-methionine sulfoxide (M^O) residues in the statistical M^O/A segment (ca. 88 mol % M^O, 12 mol % Ala)); assay: mixing of equal volumes of 5.0 wt % solutions in 1xPBS; polyion complex hydrogel formation
T1 chain: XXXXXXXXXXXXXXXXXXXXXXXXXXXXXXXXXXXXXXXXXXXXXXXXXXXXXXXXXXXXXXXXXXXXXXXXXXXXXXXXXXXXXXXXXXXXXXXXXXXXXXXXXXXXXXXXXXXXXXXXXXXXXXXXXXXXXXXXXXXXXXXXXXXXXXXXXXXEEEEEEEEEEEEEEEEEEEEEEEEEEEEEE

[2] = molecular target: T2, poly(L-methionine sulfoxide-stat-L-alanine)155-block-poly(L-glutamate-Na)90, (M^OA)155E90 (not fully specified; L-methionine sulfoxide (M^O) residues in the statistical M^O/A segment (ca. 88 mol % M^O, 12 mol % Ala)); assay: mixing of length-mismatched copolypeptides at E to K stoichiometry; hydrogel formation
T2 chain: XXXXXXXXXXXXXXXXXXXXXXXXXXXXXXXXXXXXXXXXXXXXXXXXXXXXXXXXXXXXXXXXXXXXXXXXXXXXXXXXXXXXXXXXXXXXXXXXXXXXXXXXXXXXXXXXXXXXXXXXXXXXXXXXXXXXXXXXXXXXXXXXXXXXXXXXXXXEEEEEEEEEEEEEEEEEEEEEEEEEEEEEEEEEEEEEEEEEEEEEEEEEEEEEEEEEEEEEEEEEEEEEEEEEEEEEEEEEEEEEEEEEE

[3] = molecular target: T3, FITC labeled (M^OA)155E60 (not fully specified; L-methionine sulfoxide (M^O) residues in the statistical M^O/A segment; fluorescein isothiocyanate (FITC) conjugated onto the N-terminal amine); assay: laser scanning confocal microscopy of fluorescently labeled hydrogel, 3.0 wt % in PBS
T3 construct: Fluorescently labeled form of (M^OA)155E60 used for confocal microscopy; also called E labeled (FITC)
T3 chain: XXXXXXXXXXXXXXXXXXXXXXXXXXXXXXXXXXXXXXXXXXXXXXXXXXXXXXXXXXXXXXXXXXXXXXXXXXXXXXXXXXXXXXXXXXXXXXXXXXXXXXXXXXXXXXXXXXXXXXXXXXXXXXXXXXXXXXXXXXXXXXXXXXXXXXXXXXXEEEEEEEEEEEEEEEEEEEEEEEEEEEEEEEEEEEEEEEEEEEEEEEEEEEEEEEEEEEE
Excerpt: Laser scanning confocal microscopy (LSCM) was then used to visualize the labeled chains and the hydrogel network (FIG. 3A-3B).
Example 8—Laser Scanning Confocal Microscopy (LSCM) of Fluorescently Labeled Hydrogels LSCM images of hydrogels (3.0 wt % in PBS) were taken on a Leica TCS-SP1 MP-Inverted Confocal and Multiphoton Microscope equipped with an argon laser (476 and 488 nm blue lines), a diode (DPSS) laser (561 nm yellow-green line), and a helium-neon laser (633 nm far red line). Fluorescently labeled hydrogel samples were visualized on glass slides with a spacer between the slide and the cover slip (double-sided tape) allowing the self-assembled structures to be minimally disturbed during focusing. A Z-slice thickness of 0.78 µm was used. Sample imaging was performed at the Advanced Light Microscopy/Spectroscopy Center (ALMS) at the UCLA California NanoSystems Institute (CNSI).

[4] = molecular target: T4, poly(L-methionine sulfoxide0.88-stat-L-alanine0.12)155-block-poly(L-glutamate)60, (M^OA)155E60 (not fully specified; L-methionine sulfoxide (M^O) residues in the statistical M^O/A segment (ca. 88 mol % M^O, 12 mol % Ala)); assay: mixing of equal volumes of 5.0 wt % solutions in 1xPBS; polyion complex hydrogel formation
T4 chain: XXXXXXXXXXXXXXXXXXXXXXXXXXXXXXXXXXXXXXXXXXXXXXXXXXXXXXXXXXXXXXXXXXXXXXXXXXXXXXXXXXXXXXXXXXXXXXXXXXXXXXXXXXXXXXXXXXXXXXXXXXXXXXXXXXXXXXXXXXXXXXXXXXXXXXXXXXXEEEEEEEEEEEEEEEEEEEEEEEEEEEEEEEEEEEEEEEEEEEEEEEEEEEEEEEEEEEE

[5] = molecular target: T2, poly(L-methionine …); assay: as above
[6] = molecular target: T5, poly(L-methionine sulfoxide-stat-L-alanine)155-block-poly(L-glutamate-Na)120, (M^OA)155E120 (not fully specified; L-methionine sulfoxide (M^O) residues in the statistical M^O/A segment (ca. 88 mol % M^O, 12 mol % Ala)); assay: as above
T5 chain: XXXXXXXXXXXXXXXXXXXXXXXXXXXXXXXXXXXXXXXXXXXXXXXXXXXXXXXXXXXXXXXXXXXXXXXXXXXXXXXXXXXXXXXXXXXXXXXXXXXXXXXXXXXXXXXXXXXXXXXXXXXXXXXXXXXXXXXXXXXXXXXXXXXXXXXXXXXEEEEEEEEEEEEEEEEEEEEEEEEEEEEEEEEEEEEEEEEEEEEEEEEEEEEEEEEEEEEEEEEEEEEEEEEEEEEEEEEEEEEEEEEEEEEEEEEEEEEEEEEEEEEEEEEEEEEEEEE

B1: poly(L-methionine sulfoxide-stat-L-alanine)155-block-poly(L-lysine-HCl)30, (M^OA)155K30 (other)
chain: XXXXXXXXXXXXXXXXXXXXXXXXXXXXXXXXXXXXXXXXXXXXXXXXXXXXXXXXXXXXXXXXXXXXXXXXXXXXXXXXXXXXXXXXXXXXXXXXXXXXXXXXXXXXXXXXXXXXXXXXXXXXXXXXXXXXXXXXXXXXXXXXXXXXXXXXXXXKKKKKKKKKKKKKKKKKKKKKKKKKKKKKK
modifications: not fully specified; L-methionine sulfoxide (M^O) residues in the statistical M^O/A segment (ca. 88 mol % M^O, 12 mol % Ala)
- binding result [1]: binds
- binding result [2]: binds

B2: TRITC labeled (M^OA)155K60 (other)
chain: XXXXXXXXXXXXXXXXXXXXXXXXXXXXXXXXXXXXXXXXXXXXXXXXXXXXXXXXXXXXXXXXXXXXXXXXXXXXXXXXXXXXXXXXXXXXXXXXXXXXXXXXXXXXXXXXXXXXXXXXXXXXXXXXXXXXXXXXXXXXXXXXXXXXXXXXXXXKKKKKKKKKKKKKKKKKKKKKKKKKKKKKKKKKKKKKKKKKKKKKKKKKKKKKKKKKKKK
modifications: X: randomised place (mixture); also: positions 1-155 statistical Met(O)/Ala copolymer, polydisperse, nominal block lengths, TRITC on an unspecified Lys side chain, about 1 probe per 5 chains, Lys as HCl salt
notes: Fluorescently labeled form of (M^OA)155K60 used for confocal microscopy; also called K labeled (TRITC)
- binding result [3]: binds

B3: poly(L-methionine sulfoxide0.88-stat-L-alanine0.12)155-block-poly(L-lysine)60, (M^OA)155K60 (other)
chain: XXXXXXXXXXXXXXXXXXXXXXXXXXXXXXXXXXXXXXXXXXXXXXXXXXXXXXXXXXXXXXXXXXXXXXXXXXXXXXXXXXXXXXXXXXXXXXXXXXXXXXXXXXXXXXXXXXXXXXXXXXXXXXXXXXXXXXXXXXXXXXXXXXXXXXXXXXXKKKKKKKKKKKKKKKKKKKKKKKKKKKKKKKKKKKKKKKKKKKKKKKKKKKKKKKKKKKK
modifications: not fully specified; X: randomised place (mixture); also: X1-155: Met(O) or Ala, statistical (ca. 88 mol % Met(O), 12 mol % Ala), HCl salt
- binding result [4]: binds

Results, then the binder that gave them:

- binding result [5]: binds
B4: poly(L-methionine sulfoxide-stat-L-alanine)155-block-poly(L-lysine-HCl)90, (M^OA)155K90 (other)
chain: XXXXXXXXXXXXXXXXXXXXXXXXXXXXXXXXXXXXXXXXXXXXXXXXXXXXXXXXXXXXXXXXXXXXXXXXXXXXXXXXXXXXXXXXXXXXXXXXXXXXXXXXXXXXXXXXXXXXXXXXXXXXXXXXXXXXXXXXXXXXXXXXXXXXXXXXXXXKKKKKKKKKKKKKKKKKKKKKKKKKKKKKKKKKKKKKKKKKKKKKKKKKKKKKKKKKKKKKKKKKKKKKKKKKKKKKKKKKKKKKKKKKK
modifications: not fully specified; X: randomised place (mixture); also: X1-155: Met(O) or Ala, statistical (ca. 88 mol % Met(O)), HCl salt

- binding result [6]: binds
B5: poly(L-methionine sulfoxide-stat-L-alanine)155-block-poly(L-lysine-HCl)120, (M^OA)155K120 (other)
chain: XXXXXXXXXXXXXXXXXXXXXXXXXXXXXXXXXXXXXXXXXXXXXXXXXXXXXXXXXXXXXXXXXXXXXXXXXXXXXXXXXXXXXXXXXXXXXXXXXXXXXXXXXXXXXXXXXXXXXXXXXXXXXXXXXXXXXXXXXXXXXXXXXXXXXXXXXXXKKKKKKKKKKKKKKKKKKKKKKKKKKKKKKKKKKKKKKKKKKKKKKKKKKKKKKKKKKKKKKKKKKKKKKKKKKKKKKKKKKKKKKKKKKKKKKKKKKKKKKKKKKKKKKKKKKKKKKKK
modifications: X: randomised place (mixture); also: X1-155: Met(O) or Ala, statistical (ca. 88 mol % Met(O)), polydisperse, lengths nominal, HCl salt
